Source: the RNAGym collection of RNA variant scans (doi:10.7554/elife.80360)

B1: HDV Ribozyme (parent)
chain: GGCCGGCAUGGUCCCAGCCUCCUCGCUGGCGCCGGCUGGGCAACAUUCCGAGGGGACCGUCCCCUCGGUAAUGGCGAAUGGGACCCA

Variants of: B1
Experiment: self-cleavage, relative activity (ratio to wild type); higher = more cleavage; co-transcriptional

Variant	self-cleavage
U27C C66G	0.692
U27A G52A	0.844
U27A G52C	0.914
G28A C33A	0.107
U27C C36U	0.404
U27C G80C	0.101
U27G G59C	1.03
U27G G59A	0.855
U27G G59U	1.03
U27A A87C	0.88
U27C G39U	0.467
U27C G39A	0.175
U27G C49G	0.665
U27A A78U	0.256
U27A G76U	0.65
U27G C63A	1.07
U27G C63U	1.11
U27A G59A	0.919
U27A U46G	0.369
U27A U46C	0.733
U27C C44A	0.447
U27C C44G	0.277
U27A G35A	0.369
U27A G35C	0.201

Variant	self-cleavage
U27A G35U	0.201
U27G G31C	0.344
U27G G31U	0.293
U27A C32G	0.0545
U27A C32A	0.0604
U27A C32U	0.923
U27C G38U	0.131
U27C G38A	0.0978
U27G G40U	0.293
U27G G40C	0.0639
U27G G40A	0.889
U27C C57G	0.639
U27C C57U	0.707
U27G C44A	0.475
U27G C44U	0.688
U27A G28A	0.0811
U27A G28C	0
U27G A56U	0.692
U27C G28U	0.0678
U27C G28A	0.135
U27A G34U	0.272
U27C A71G	0.677
U27C A71U	0.639
U27C A71C	0.458

Variant	self-cleavage
U27G A42G	0.289
C26U G52C	0.9
U27G C64G	0.87
C26U G67U	0.686
U27G A78C	0.499
U27G A78G	0.532
U27A A45G	0.745
U27A A45U	0.458
C26U G35C	0.288
C26U G35U	0.641
U27A G73C	0.0639
U27G G35U	0.277
U27G G35C	0.0594
U27G G35A	0.295
U27G G50A	0.923
U27G A43C	0.166
U27G A43G	0.302
U27A C84U	0.795
U27A C84A	0.831
U27C A77C	0.192
U27G G39A	0.196
U27G C30A	0.458
G28A C41U	0.0875
G28A C41A	0.13

Variant	self-cleavage
U27C G35C	0
C26U G80C	0.554
U27G G73A	0.396
U27G G73U	0.0723
U27G U46A	0.332
U27G U46C	0.997
G28A C44U	0.215
U27G A71C	0.7
U27A G82A	0.849
G28A A71C	0.162
G28A A71U	0.0292
G28A C36G	0.0519
C26U G81C	0.748
U27A A51U	0.739
U27C G55C	0.847
U27C G55A	0.533
U27C G55U	0.426
U27C C75U	0.161
U27C A45C	0.237
U27G G80U	0.224
U27G G80C	0.213
C26U G29A	0.332
C26U G29C	0.0959
U27A C49A	0.831

Variant	self-cleavage
U27C C84U	0.65
U27C C84A	0.923
C26U U65A	0.769
U27G A77C	0.277
U27A C86G	0.918
U27C G40U	0.7
U27A G55U	1.14
U27C G52U	1.01
U27C C30G	0
U27C C30A	0.415
U27C C30U	0.426
G28A A87C	0.0676
U27G C58A	0.516
U27G C58G	0.95
U27G U79C	0.308
G28A A56G	0.135
U27A C41A	0.895
U27A A56U	0.923
U27A A56C	0.914
U27C G34A	0.289
U27A C58A	0.997
U27A C58U	0.937
U27C G53U	0.746
U27C A87C	0.595

Variant	self-cleavage
C26U U47A	1.16
U27C A83G	0.727
U27C A83C	0.554
U27C A83U	0.465
U27G U37C	0.762
U27A A77U	0.332
U27A A77C	0
C26U G82U	0.769
C26U G82A	0.769
C26U U72C	0.906
C26U U72A	0.731
C26U G54U	1.07
C26U G54A	0.774
G28A A78C	0.0378
G28A A78G	0.185
G28A A78U	0.0308
U27G A87G	0.774
U27G A87U	0.763
U27G C33U	0.935
U27G C33A	0.185
U27A G68A	0.944
U27A G68U	0.875
U27G A45C	0.26
U27G A45U	0.831

Variant	self-cleavage
U27G U60A	0.914
U27G U60C	0.804
U27C C64U	0.895
U27A G31C	0.378
U27A G31A	0.743
U27C C32A	0.0519
U27G C48G	0.923
U27G G28A	0.499
U27G G28C	0.554
U27G G28U	0.612
C26U G50A	1.07
U27A C61A	0.906
U27A G50U	0.99
U27A U47G	0.89
U27G C62A	1.09
U27G C62U	1.02
U27G C62G	1.14
U27A U60C	1.21
U27G C32A	0.185
U27G C32U	0.831
U27G C32G	0
U27A G40A	0.886
U27A G40U	0.793
